Here are results for 41 sequences from the nanobody polyreactivity screen of Harvey et al. (2022).

The data set in a line: yeast display, Sf9 membrane polyspecificity reagent, FACS + sequencing; frameworks hold sequencing errors. An outline of the steps:
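After 36–48 hours of galactose induction, yeast (Saccharomyces cerevisiae BJ5465) displaying a synthetic nanobody library were stained at 4 °C for 1 hour with 10% biotinylated, detergent-solubilized Sf9 membrane reagent. Streptavidin microbeads enriched the stained cells before FACS sorting into low and high (top ~1%) gates on anti-HA and streptavidin fluorescence. Each clone's polyreactivity label reflects its gate of origin.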
As to “QDQLVESGGGLVQAGGSLRLSCAASGSTFTFYVMGWYRQAPGKERELVAAITASGGSTYYADSVKGRFTISRDNAKNTVYLQMNSLKPEDTAVYYCAARPTYYYSRTYDYWGQGTQVTVSS”, the “polyreactivity (PSR sort gate)” value is “low polyreactivity”.

With “QDQLVESGGGLVQAGGSLRLSCAASGSTFVYYAMGWYRQAPGKERELVAAISRTGNTYYADSVKGRFTISRDNAKNTVYLQMNSLKPEDSAVYYCAKDYWRAYGSYEYWGQGTQVTVSS”, the “polyreactivity (PSR sort gate)” value was “low polyreactivity”.

As for “QDQLVESGGGLVQAGGSLRLSCAASGSTFYFNAMGWYRPAPGKEREFVAVIDGSGGFTYYADSVKGRFTISRDNAKNTVYLQLNILKPEDTAVYYCNADLVYNTFFYSGGDEYDYWGQGTQVNVSS”, the “polyreactivity (PSR sort gate)” value is “high polyreactivity”.

For “QDQLVESGGGLVQAGGSLRLSCAASGSTIWGNAMGWYRQAPGKERELVAAITSTGSTNYADSVKARFTISRDNAKNTVYLQMNSLKPEVTAVYYCATAYYHTYWPTRRYYYWGQGTQVTVSS”, the “polyreactivity (PSR sort gate)” value is “high polyreactivity”.

For the sequence “QDQLVESGGGLVQAGGSLRLSCAASGTFGGYAMGCYRQAPRKERELVARIRRNGGSTYYADSVKGRFTISRDNAKNTVYLQMNCLKPEDTAVYYCATYRYVYGTASYGYWGQGTQVTVSS”, the “polyreactivity (PSR sort gate)” value was “high polyreactivity”.

Consider “QDQLVESGGGLVQAGGSLRLSCAASGYTFDYNAMGWYRQAPGKEREFVAAIDWSGGNTYYADSVKGRFTISRDNAKNTVYLQMNSLKPEDTAVYYCNTVTEAVTRRYDYWGQGTQVTVSS”, for which the “polyreactivity (PSR sort gate)” value is “low polyreactivity”.

Consider “QDQLVESGGGLVQAGGSLRLSCAASGYTFFFYVMGWSRQAAGKERELVAAITFSVGSTYYADSVKRRFTISRDNAKNTVYLQMNSLKPEDTAVYYCAARGALYSHSYGSARYYYWGQGTQVTVSS”, for which the “polyreactivity (PSR sort gate)” value was “high polyreactivity”.

In the case of “QDQLVESGGGLVQAGGSLRLSCAATGRIFKLYAMGWYRQAPGKERELVAAISSSGTRTYYADSVKGRFTISRDNAKNTVYLHMNSMKPEDTAVYYCAKRWPRKGNYPGSDYWGQGTQVTVSS”, the “polyreactivity (PSR sort gate)” value is “high polyreactivity”.

Consider “QDQLVESGGGLVQAGGSLRLSCAATGRIFVYYAMGWSRQAPGKERELVATISSGGSTYYADSVKGRFTISRDNAKNTVYLQMNSLKPDDTAVYYCAADNVNLYLAYYYKGDYWGQGTQVTVSS”, for which the “polyreactivity (PSR sort gate)” value is listed as “low polyreactivity”.

In the case of “QDQLVESGGGLVQAGGSLRLSCAATGRTFYFYTMGWYRQAPGKERELVATAITSGGSTNYADSVKGRFTISRDNAKNTVYLQMNSLKPEDTAVYYCAATLYWGWVFSYTSFDYWGQGTQVTVSS”, the “polyreactivity (PSR sort gate)” value is given as “low polyreactivity”.

On to “QDQLVESGGGLVQAGGSLRLSCAAYGRTLRRYAMGWYRQAPGKERELVAAISRSGSSTYADSVKGRFTISRDNAKNTVYLQMNSLKPEDTAVYYCNAYQPRYGYWGQGTQVTVSS”, for which the “polyreactivity (PSR sort gate)” value is listed as “high polyreactivity”.

With “QDQLVESGGGLVQAGGSLRLSCAAYGSTFPVYTMGWYRQAPRKEREFVAAITGSGGRTYYADSVKGRFTISRDNAKNTVFLQMNSLKPEDTAVYYCNAYPKGRYAAAFPGMDYWGQGTQVTVSS”, the “polyreactivity (PSR sort gate)” value is reported as “high polyreactivity”.

With “QDQLVESGGGLVQAGGSLRLSCAAYGYTFDDNAMGWFRQAPGKERELVAAINWDGASTYADSVKGRFTISRDNAKNTVYLQMNSLKPEDTAVYYCTASGKDIFNYVYQGYDYCGQGTQVTVSS”, the “polyreactivity (PSR sort gate)” value is “low polyreactivity”.

Take “QDQLVESGGGLVQAGGSLRLSCADYGINFYSYAMGWYRQAPGKEREFVAAISTGSSTNYADSVKGRFTISRDNAKNNVYLQMISLKPEDTAVYYCAKSTAVKPYAYRESGFIYDYWGQGTQLTVSS”: the “polyreactivity (PSR sort gate)” value is “low polyreactivity”.

In the case of “QDQLVESGGGLVQAGGSLRLSCAPSGRIFTTYGMGWYSQAPGKERELVAAISRSGGSTYYADSVKGRFTISRDNAKNTVYLQMNSLKPEDTAVYYCAAVPTSNSFRSSFYYWGQGTQVTVSS”, the “polyreactivity (PSR sort gate)” value was “high polyreactivity”.

With “QDQLVESGGGLVQAGGSLRLSCDASGSTFLVYAMGWYRQAPGKERELVAAITQIDGSTYYADSVKGRFTISRDNAKNTVYLQMNSLKPEDTAVYYCAARYFWTYEYDYWGHGTQVTVSS”, the “polyreactivity (PSR sort gate)” value is reported as “low polyreactivity”.

As to “QDQLVESGGGLVQAGGSLRLSCGASGGIFWKYAMGWYRQAPGKERELVAAISRSGSSTYYADSVKGRFTISRDNAKNTVYLQMNSLKPEDTAVYYCAAQPYDSNYGNSGYWGQGTQVTVSS”, the “polyreactivity (PSR sort gate)” value is given as “high polyreactivity”.

Regarding “QDQLVESGGGLVQAGGSLRLSCSATGRIFRSYAMGWYRQAPGKERELVASITWRGSSTYYADSVKGRFTISRDNAKNTVYLQMNSRKPEDTAVYYCAKEGYLYLWRYDYWGQGTQVTVSS”, the “polyreactivity (PSR sort gate)” value is recorded as “high polyreactivity”.

“QDQLVESGGGLVQAGGSLRLSFAASGSTFFTYPMGWYRQDPGKERELVAAITLNGGSTYYADSVKGRFTISRDNAKNTVYLQMISLKPEDTAVYYCAAEVPDTDYNYWGQGTQVTVSS”: the “polyreactivity (PSR sort gate)” value was “low polyreactivity”.

In the case of “QDQLVESGGGLVQAGGSLRLSGAASGSTFDRYAMGWYRQAPGKEREFVAAITWGGGSTYYADSVKGRFTISRDNAKNTVYLQMNSLKPEDTAVYYCASRYGATFGYWGQGTQVTVSS”, the “polyreactivity (PSR sort gate)” value is given as “low polyreactivity”.

In the case of “QDQLVESGGGLVQAGGSLRLTCAASGFIFYHYAMGWYRQAPGKERDLVAAINWSGGSTYYADSVKGRFTISRDNAKKTDYLQMNSLKPEDTAVYYCAAYSTAWYWPGKFDYWGQGTQVTVSS”, the “polyreactivity (PSR sort gate)” value was “high polyreactivity”.

With “QDQLVESGGGLVQAGGSLRLTCAASGRICTYYAMGWYRKATGKERELVASISRSGGNTYYADSVKGRFTISRDNAKNTVYLQMNSLKPEDTAVYYCAAVYSRLDYWGQGTQVTVSS”, the “polyreactivity (PSR sort gate)” value is recorded as “high polyreactivity”.

Turning to “QDQLVESGGGLVQAGGSLSLSCAASGQTFYQYAMGWYRQAPGKERELVAAISKSAGSTYYADSVKGRFTISRDNAKNTVYLQMNSLKPEDTAVYYCVARVLRLRYDYWGQGTQVSVSS”, the “polyreactivity (PSR sort gate)” value is listed as “high polyreactivity”.

In the case of “QDQLVESGGGLVQAGGSLSLSCAASGSIFFRNVMGWYRQAPGKERELVAAISGSGGRTYNADSVKGRFTISRDNAKNTVYLQMNSLKPEDTAVYYCYADYWSRRDDHDYWGQGTQVSVSS”, the “polyreactivity (PSR sort gate)” value is on record as “high polyreactivity”.

On to “QDQLVESGGGLVQAGGSQRLSCAASGFTFRRYAMGWYRQEPGKERELVAVITTAGSTNYADSVKGRFTISRDNAKNTVYLPMNSLKPEDTAVYYCATDNGTRKGRYDYWGQGTQVTVSS”, for which the “polyreactivity (PSR sort gate)” value was “low polyreactivity”.

“QDQLVESGGGLVQAGRSLRLSCAASGSIFTVYAMGWYRQAPGKEWELVASISTGGSTNYADSVKGRFTISRDNAKNTVYLPMISLKPEDTAVYYCAATGWAYGYGYGYWGQGTQVTVSS”: the “polyreactivity (PSR sort gate)” value is recorded as “low polyreactivity”.

In the case of “QDQLVESGGGLVQAGVSLRLSCAASGSTFAYITMGRYRQAPGKERELVAAISWRGTRTYYADSVKGRFTISRDNAKNNVYLQMNSLKPEDTAVYYCATKDGISYDYWVQGTQVTVSS”, the “polyreactivity (PSR sort gate)” value is reported as “high polyreactivity”.

Regarding “QDQLVESGGGLVQARGPLRLSCSASGFNFSNYAMGWYRHAPGKERELVAAISFTGSNTYYADSVKGRFTISRDNAKNTVYLQMNSLKPEDTAVYYWNDPLVWGVYAAQNWDEGYWGQGTQVTVSS”, the “polyreactivity (PSR sort gate)” value is recorded as “low polyreactivity”.

As for “QDQLVESGGGLVQARVSLRLSSAASGFIFRWNTMGWYRQAPGKERELVAAISSRGGSTYYAYSVKGRFKISRDNAKNTVYLQMNSLKPEDTAVYYCNAVRGDEYWGQGTQVTVSS”, the “polyreactivity (PSR sort gate)” value is “high polyreactivity”.

“QDQLVESGGGLVQEGGSLRLSCAASVSIQAPYAMGWYRQAPGKERELVAAISSRGGSTYYADSVKGRFTISRDNAKNTVYLQMNSLKPEDTAVYYCAAYVYLQVEYDYWGQGTQVTVSW”: the “polyreactivity (PSR sort gate)” value is reported as “low polyreactivity”.

Consider “QDQLVESGGGLVQPGGSLRLSCAASGITFYYYTMGWYRQAPGKERELVAGITRGGRTYYADSVKGRFTISRDNAKNTVYLQMNSLKPVDSAVYYCNADPWWRFDYWGQGTQVTVSS”, for which the “polyreactivity (PSR sort gate)” value is on record as “low polyreactivity”.

For the sequence “QDQLVESGGGLVQTGGSLRLSCASSGLIFTYYALGWYRQAPGTERELVAANRGSYSSTYYADSVKGRFTISRDNAKNTVYLHMNSLKPEDTAVYYCAAKYYWGQGTQVTVSS”, the “polyreactivity (PSR sort gate)” value is listed as “high polyreactivity”.

In the case of “QDQLVESGGLLVQAGGSLRLSCAAYGSTIGVYAMGWYRQAPRKERELVAAISSSTGSTYYADSVKGRFTISRDNAKNTVYLQMIRQKPEDTAVFYCAAAGYGKVRGDYWGQGTQVSVSS”, the “polyreactivity (PSR sort gate)” value is given as “low polyreactivity”.

As to “QDQLVESGGRIVQAGGSLRLSCAASGRIFSVYARGWYRQAPGKERELVATISDGGATTYYADSVKGRFTISRDNAKNTVFFQMNSLKPEDTAVYYCAADKRGRPGLPDYDSWGQGTEVTVSS”, the “polyreactivity (PSR sort gate)” value is “low polyreactivity”.

For the sequence “QDQLVESGGRLVQAGGSLRLSCAASGFILSTYAMGWYRQAPGKERELVAAISSSGTSTYYADSVKGRFTISRDNAKNTVYLQMNSLKPEDTAVYYCARVSKRTWSGYYYWGQGTQVTVST”, the “polyreactivity (PSR sort gate)” value was “high polyreactivity”.

As to “QDQLVESGLGIVQAGGSLRLSCAASGYTFSQYSMGWYRQAPGKERELVAAIDSGSKTKYADSVKGRFTISRDNAKNTVYLQMNSLKPEDSAVYYCAADDSYRSIGGDYWGQGTQVTVSS”, the “polyreactivity (PSR sort gate)” value is listed as “low polyreactivity”.

With “QDQLVESGVGLVQAGGSHRLSCAASGSTFYRYAMRWYRQAHGKERELVATITTGGSSTYYADSVKGRFTISRDNAKNTVYLQMNSLKPEDTAVYYCAKVYTYSGVNLRRISTPYGYWGQGTQVTVSS”, the “polyreactivity (PSR sort gate)” value is “high polyreactivity”.

For “QDQLVESGVGLVQAGGSLRLSCAASGRILGRNAMGWYRQAPGKERELVAAISSGVSTNYADSVKGRFTISRANAKNTVYLQMNSLKPEDTAVYYWGQGTQVTVSS”, the “polyreactivity (PSR sort gate)” value is recorded as “low polyreactivity”.

Turning to “QDQLVESRGGIVQAGGRLRLSCAASGSRFGGYGMGWYRQAPWKEREFVAVITKRGGSTYYADSVKGRFTISRDNAYNTVYLQMNSLKPEDTAVDYCNKVGYYASVLCYDYWGQGTQVTVSS”, the “polyreactivity (PSR sort gate)” value is reported as “high polyreactivity”.

Regarding “QDQLVESRGGLVQAGGSLRLICDASGFTFDSNAMVWYRQEPGKERQLVAAISARGTSTYYADSVKGRFTISRDNAKNTVYLQMNSLKPEDTAVYDCNTGESSWYLPEEDYWGQGTQVTLSS”, the “polyreactivity (PSR sort gate)” value is “low polyreactivity”.

As to “QDQLVESRGGLVQAGGSLRLSCAASGFTFPSYAMGWYRQAPRKERELVAAITRSGGRTYYADSVKGRFTISRDNAKNTVYLQMNILKPEDTAVYYGAADRAAPRYDYWGQGTQVTVSS”, the “polyreactivity (PSR sort gate)” value was “high polyreactivity”.
